Laboratory results: publication PMC7769916 (Cellular and molecular life sciences : CMLS, 2020)

What was measured:
[1] = target: Plexin-B1 ICD E1530R.E1533R (human) (UniProt O43157)
[2] = target: Plexin-B1 ICD R1900E.R1904E (human) (UniProt O43157)
[3] = target: Plexin-B1 ICD FL [res. 1511-2135] (human, UniProt O43157 1511-2135); test: MST
[4] = target: Plexin-B1 ICD E1530R.E1533R (human, UniProt O43157 1511-2135, E1530R | E1533R); test: MST
[5] = target: Plexin-B1 ICD R1900E.R1904E (human, UniProt O43157 1511-2135, R1900E | R1904E); test: MST
Plexin-B1 ICD R1900E.R1904E, sequence (O43157 1511-2135 R1900E/R1904E): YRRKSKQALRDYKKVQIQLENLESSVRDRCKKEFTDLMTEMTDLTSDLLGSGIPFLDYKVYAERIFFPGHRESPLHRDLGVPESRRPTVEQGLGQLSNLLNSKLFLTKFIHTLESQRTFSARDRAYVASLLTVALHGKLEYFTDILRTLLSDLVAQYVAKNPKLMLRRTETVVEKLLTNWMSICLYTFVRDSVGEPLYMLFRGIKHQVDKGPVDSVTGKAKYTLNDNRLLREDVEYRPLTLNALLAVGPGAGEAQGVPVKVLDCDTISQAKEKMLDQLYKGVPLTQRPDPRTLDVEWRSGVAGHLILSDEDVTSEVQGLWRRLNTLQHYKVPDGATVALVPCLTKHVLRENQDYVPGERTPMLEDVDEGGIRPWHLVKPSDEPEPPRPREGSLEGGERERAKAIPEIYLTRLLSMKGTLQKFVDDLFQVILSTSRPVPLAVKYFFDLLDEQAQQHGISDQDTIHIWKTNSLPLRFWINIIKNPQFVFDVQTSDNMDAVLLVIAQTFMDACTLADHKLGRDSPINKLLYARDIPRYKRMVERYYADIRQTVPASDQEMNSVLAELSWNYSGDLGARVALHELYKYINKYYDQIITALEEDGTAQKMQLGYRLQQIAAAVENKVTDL

Plexin-B1 ICD R1900E.R1904E (human), sequence (O43157 1511-2135 R1900E/R1904E): as above
Plexin-B1 ICD FL [res. 1511-2135], sequence (O43157 1511-2135): as the sequence (O43157 1511-2135 R1900E/R1904E) above, with E390R, E394R counted along it
Plexin-B1 ICD E1530R.E1533R, sequence (O43157 1511-2135 E1530R/E1533R): as the sequence (O43157 1511-2135 R1900E/R1904E) above, with E20R, E23R, E390R, E394R counted along it
Plexin-B1 ICD E1530R.E1533R (human), sequence (O43157 1511-2135 E1530R/E1533R): as the sequence (O43157 1511-2135 R1900E/R1904E) above, with E20R, E23R, E390R, E394R counted along it

## Human Rap1b wild type [res. 1 to 184] (from UniProt P61224 1-184) (enzyme)
[1]
  loss of GAP activity towards Rap1b against wild type Plexin-B1 ICR: > 50%
[2]
  loss of GAP activity towards Rap1b against wild type Plexin-B1 ICR: > 50%

B1: Rap1b G12V (constitutive active mutant) [res. 1 to 184] (enzyme, human, UniProt P61224 1-184, looked up)
chain: MREYKLVVLGSVGVGKSALTVQFVQGIFVEKYDPTIEDSYRKQVEVDAQQCMLEILDTAGTEQFTAMRDLYMKNGQGFALVYSITAQSTFNDLQDLREQILRVKDTDDVPMILVGNKCDLEDERVVGKEQGQNLARQWNNCAFLESSAKSKINVNEIFYDLVRQINRKTPVPGKARKKSSCQLL
[3]
  binding result: binds
[4]
  Kd: > 100 µM
[5]
  Kd: > 100 µM
